This note sets out measurements from patent US20220348650A1.

The assay deals with hTIGIT on the surface of T cells of B-hPD-1/hTIGIT double humanized mice (human extracellular region in the mouse genome (C57BL/6)) (UniProt Q495A1). Briefly: flow cytometry on spleen cells of a B-hPD-1/hTIGIT mouse, secondary anti-human Fc FITC; Q3 (TCRβ positive, stain negative) 30.3%.
hTIGIT on the surface of T cells of B-hPD-1/hTIGIT double humanized mice (human extracellular region in the mouse genome (C57BL/6)), sequence (Q495A1 22-141 limits assumed): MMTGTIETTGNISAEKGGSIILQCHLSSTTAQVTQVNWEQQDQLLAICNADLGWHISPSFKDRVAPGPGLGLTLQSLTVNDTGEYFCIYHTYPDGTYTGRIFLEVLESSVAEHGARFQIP

The substance IgG1 isotype control (antibody) registered a % of events in quadrant Q2 (mouse TCRβ positive and human IgG positive) of 2.61%.
